The values that follow come from the supplement of paper PMC10567573.

First the molecules themselves.
B1: ZNF24 (parent)
chain: THTKEQILELVVLEQFVAILPKEL
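Further: lentivirally expressed fusions sorted by FACS into six bins by GFP to DsRed ratio, PSI derived from sequencing read proportions per bin multiplied by bin number.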

In the series the parent is B1. Put plainly: protein stability index of a GFP-peptide fusion (GPS, HEK-293T) (PSI 1-6); higher = more stable. The settings on record: c terminus: a fixed tail appended.
In the case of THHKEQILELVVLEQFVAILPKEL [T3H], the protein stability index was 2.23.

Consider THVKEQILELVVLEQFVAILPKEL [T3V], for which the protein stability index is 2.

For the variant THEKEQILELVVLEQFVAILPKEL [T3E], the protein stability index is 3.23.

As to THYKEQILELVVLEQFVAILPKEL [T3Y], the protein stability index worked out at 3.59.

As for THWKEQILELVVLEQFVAILPKEL [T3W], the protein stability index was found to be 3.42.

On to THQKEQILELVVLEQFVAILPKEL [T3Q], for which the protein stability index was 2.81.

Turning to THIKEQILELVVLEQFVAILPKEL [T3I], the protein stability index came to 2.65.

With THCKEQILELVVLEQFVAILPKEL [T3C], the protein stability index worked out at 1.53.

With THMKEQILELVVLEQFVAILPKEL [T3M], the protein stability index came to 3.02.

As to THSKEQILELVVLEQFVAILPKEL [T3S], the protein stability index is 3.88.

In the case of THDKEQILELVVLEQFVAILPKEL [T3D], the protein stability index turned out to be 2.43.

Take THRKEQILELVVLEQFVAILPKEL [T3R]: the protein stability index amounted to 2.26.

On to THGKEQILELVVLEQFVAILPKEL [T3G], for which the protein stability index turned out to be 4.09.

Consider THAKEQILELVVLEQFVAILPKEL [T3A], for which the protein stability index was 3.86.

For the variant THFKEQILELVVLEQFVAILPKEL [T3F], the protein stability index stood at 2.76.

On to THLKEQILELVVLEQFVAILPKEL [T3L], for which the protein stability index came to 3.11.

THNKEQILELVVLEQFVAILPKEL [T3N]: the protein stability index is 3.1.

THPKEQILELVVLEQFVAILPKEL [T3P]: the protein stability index was 2.96.

For the variant THKKEQILELVVLEQFVAILPKEL [T3K], the protein stability index worked out at 2.96.

As for THTKEQYLELVVLEQFVAILPKEL [I7Y], the protein stability index was 3.29.

Take THTKEQTLELVVLEQFVAILPKEL [I7T]: the protein stability index was 2.11.

As for THTKEQELELVVLEQFVAILPKEL [I7E], the protein stability index was determined as 2.55.

As to THTKEQCLELVVLEQFVAILPKEL [I7C], the protein stability index is 1.59.

For THTKEQQLELVVLEQFVAILPKEL [I7Q], the protein stability index was determined as 1.89.

Consider THTKEQSLELVVLEQFVAILPKEL [I7S], for which the protein stability index came to 2.04.

In the case of THTKEQHLELVVLEQFVAILPKEL [I7H], the protein stability index turned out to be 2.04.

For THTKEQKLELVVLEQFVAILPKEL [I7K], the protein stability index turned out to be 1.56.

Consider THTKEQPLELVVLEQFVAILPKEL [I7P], for which the protein stability index came out at 2.48.

With THTKEQVLELVVLEQFVAILPKEL [I7V], the protein stability index came out at 1.29.

Take THTKEQDLELVVLEQFVAILPKEL [I7D]: the protein stability index turned out to be 2.35.

As for THTKEQMLELVVLEQFVAILPKEL [I7M], the protein stability index is 3.04.

For THTKEQGLELVVLEQFVAILPKEL [I7G], the protein stability index was 1.76.

On to THTKEQNLELVVLEQFVAILPKEL [I7N], for which the protein stability index is 1.65.

In the case of THTKEQFLELVVLEQFVAILPKEL [I7F], the protein stability index amounted to 2.54.

Take THTKEQLLELVVLEQFVAILPKEL [I7L]: the protein stability index was found to be 2.16.

Consider THTKEQWLELVVLEQFVAILPKEL [I7W], for which the protein stability index stood at 2.51.

Turning to THTKEQRLELVVLEQFVAILPKEL [I7R], the protein stability index turned out to be 1.9.

THTKEQALELVVLEQFVAILPKEL [I7A]: the protein stability index came to 1.74.

With LHTKEQILELVVLEQFVAILPKEL [T1L], the protein stability index was 1.56.

As for GHTKEQILELVVLEQFVAILPKEL [T1G], the protein stability index came to 2.25.

Turning to WHTKEQILELVVLEQFVAILPKEL [T1W], the protein stability index came out at 2.72.

Regarding DHTKEQILELVVLEQFVAILPKEL [T1D], the protein stability index amounted to 2.63.

For CHTKEQILELVVLEQFVAILPKEL [T1C], the protein stability index was determined as 3.51.

As for RHTKEQILELVVLEQFVAILPKEL [T1R], the protein stability index was 1.94.

With EHTKEQILELVVLEQFVAILPKEL [T1E], the protein stability index was 2.81.

On to VHTKEQILELVVLEQFVAILPKEL [T1V], for which the protein stability index is 3.19.

On to PHTKEQILELVVLEQFVAILPKEL [T1P], for which the protein stability index was found to be 3.09.

In the case of MHTKEQILELVVLEQFVAILPKEL [T1M], the protein stability index turned out to be 1.92.

As to QHTKEQILELVVLEQFVAILPKEL [T1Q], the protein stability index turned out to be 1.32.

For SHTKEQILELVVLEQFVAILPKEL [T1S], the protein stability index was 3.3.

On to FHTKEQILELVVLEQFVAILPKEL [T1F], for which the protein stability index is 3.59.

Take KHTKEQILELVVLEQFVAILPKEL [T1K]: the protein stability index worked out at 2.39.

As for NHTKEQILELVVLEQFVAILPKEL [T1N], the protein stability index is 2.86.

As to AHTKEQILELVVLEQFVAILPKEL [T1A], the protein stability index amounted to 3.53.

Take YHTKEQILELVVLEQFVAILPKEL [T1Y]: the protein stability index amounted to 2.79.

Regarding IHTKEQILELVVLEQFVAILPKEL [T1I], the protein stability index came out at 2.73.

Turning to TGTKEQILELVVLEQFVAILPKEL [H2G], the protein stability index is 2.96.

Consider TKTKEQILELVVLEQFVAILPKEL [H2K], for which the protein stability index is 3.34.

As for TATKEQILELVVLEQFVAILPKEL [H2A], the protein stability index amounted to 3.12.

For the variant TWTKEQILELVVLEQFVAILPKEL [H2W], the protein stability index was 3.14.

As to TYTKEQILELVVLEQFVAILPKEL [H2Y], the protein stability index is 2.19.

TITKEQILELVVLEQFVAILPKEL [H2I]: the protein stability index worked out at 3.4.

Turning to TQTKEQILELVVLEQFVAILPKEL [H2Q], the protein stability index came to 3.14.

As to TTTKEQILELVVLEQFVAILPKEL [H2T], the protein stability index was 2.23.

For TETKEQILELVVLEQFVAILPKEL [H2E], the protein stability index came to 2.74.

Consider TLTKEQILELVVLEQFVAILPKEL [H2L], for which the protein stability index was found to be 4.38.

On to TDTKEQILELVVLEQFVAILPKEL [H2D], for which the protein stability index was 4.11.

As for TVTKEQILELVVLEQFVAILPKEL [H2V], the protein stability index was 2.41.

Regarding TNTKEQILELVVLEQFVAILPKEL [H2N], the protein stability index is 2.59.

As for TFTKEQILELVVLEQFVAILPKEL [H2F], the protein stability index came to 2.4.

For TPTKEQILELVVLEQFVAILPKEL [H2P], the protein stability index was found to be 1.76.

For the variant TMTKEQILELVVLEQFVAILPKEL [H2M], the protein stability index worked out at 3.24.

Regarding TCTKEQILELVVLEQFVAILPKEL [H2C], the protein stability index is 2.25.

For the variant THTKEQILALVVLEQFVAILPKEL [E9A], the protein stability index was found to be 3.22.

For THTKEQILCLVVLEQFVAILPKEL [E9C], the protein stability index came out at 1.64.

Consider THTKEQILFLVVLEQFVAILPKEL [E9F], for which the protein stability index is 2.82.

Consider THTKEQILDLVVLEQFVAILPKEL [E9D], for which the protein stability index turned out to be 2.28.

As for THTKEQIQELVVLEQFVAILPKEL [L8Q], the protein stability index was 1.95.

THTKEQITELVVLEQFVAILPKEL [L8T]: the protein stability index stood at 1.75.

As to THTKEQIWELVVLEQFVAILPKEL [L8W], the protein stability index turned out to be 3.68.

As for THTKEQIEELVVLEQFVAILPKEL [L8E], the protein stability index came out at 2.32.

Turning to THTKEQIYELVVLEQFVAILPKEL [L8Y], the protein stability index turned out to be 2.66.

Regarding THTKEQISELVVLEQFVAILPKEL [L8S], the protein stability index was determined as 1.57.

Regarding THTKEQICELVVLEQFVAILPKEL [L8C], the protein stability index was 2.75.

For the variant THTKEQIIELVVLEQFVAILPKEL [L8I], the protein stability index came to 2.79.

THTKEQIRELVVLEQFVAILPKEL [L8R]: the protein stability index was determined as 1.85.

As to THTKEQIVELVVLEQFVAILPKEL [L8V], the protein stability index is 2.4.

Turning to THTKEQIKELVVLEQFVAILPKEL [L8K], the protein stability index was determined as 1.84.

As to THTKEQIGELVVLEQFVAILPKEL [L8G], the protein stability index worked out at 1.62.

THTKEQIHELVVLEQFVAILPKEL [L8H]: the protein stability index was 2.1.

For the variant THTKEQIFELVVLEQFVAILPKEL [L8F], the protein stability index came to 3.62.

Take THTKEQIMELVVLEQFVAILPKEL [L8M]: the protein stability index turned out to be 2.41.

For the variant THTKEQIAELVVLEQFVAILPKEL [L8A], the protein stability index worked out at 2.28.

As for THTKEQINELVVLEQFVAILPKEL [L8N], the protein stability index worked out at 1.57.
